Test results as given in article PMC10920896 (2024).

How the values were obtained:
[1] = biological target: T1, biotinylated murine wildtype gp130 (D1-D6) with C-terminal biotin acceptor peptide and hexa-histidine tag (murine, UniProt Q00560 23-617, biotin on the C-terminal biotin acceptor peptide (in vitro, BirA)); test: SPR; equilibrium fit
T1 chain: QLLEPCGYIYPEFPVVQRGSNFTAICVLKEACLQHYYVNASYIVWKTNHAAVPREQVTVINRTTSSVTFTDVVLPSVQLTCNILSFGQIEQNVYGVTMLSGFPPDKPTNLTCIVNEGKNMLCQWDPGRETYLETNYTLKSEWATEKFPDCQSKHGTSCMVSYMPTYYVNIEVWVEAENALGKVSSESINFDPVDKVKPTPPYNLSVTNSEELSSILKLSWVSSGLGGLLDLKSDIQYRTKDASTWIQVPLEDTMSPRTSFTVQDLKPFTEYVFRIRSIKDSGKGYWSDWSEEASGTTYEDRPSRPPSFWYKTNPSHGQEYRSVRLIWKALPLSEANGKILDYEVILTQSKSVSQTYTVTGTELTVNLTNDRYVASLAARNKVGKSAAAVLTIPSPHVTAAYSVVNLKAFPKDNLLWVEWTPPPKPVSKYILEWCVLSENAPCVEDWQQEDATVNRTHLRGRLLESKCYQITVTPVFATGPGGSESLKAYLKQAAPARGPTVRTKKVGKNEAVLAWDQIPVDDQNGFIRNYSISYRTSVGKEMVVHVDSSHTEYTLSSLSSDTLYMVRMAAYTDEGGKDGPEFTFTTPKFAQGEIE

[2] = biological target: T2, biotinylated murine gp130_(P496L) (D1-D6) with C-terminal biotin acceptor peptide and hexa-histidine tag (murine, UniProt Q00560 23-617, P496L, biotin on the C-terminal biotin acceptor peptide (in vitro, BirA)); test: SPR; equilibrium fit
[3] = biological target: T1, biotinylated murine wildtype gp130 …; test: SPR; kinetic fit
[4] = biological target: T2, biotinylated murine gp130_(P496L) …; test: SPR; kinetic fit
[5] = biological target: T1, biotinylated murine wildtype gp130 …; test: SPR
[6] = biological target: T2, biotinylated murine gp130_(P496L) …; test: SPR

Kd [1]: 8.5 nM
Kd [2]: 11 nM
Kd [3]: 1.45 nM
Kd [4]: 1.8 nM
koff [5]: 0.0023 s⁻¹
koff [6]: 0.0027 s⁻¹
B1: HypIL-11 (human IL-11 fused by a short linker to domains D2 and D3 of IL-11Rα, single chain) (other)
chain: PPARPVVSCQAADYENFSCTWSPSQISGLPTRYLTSYRKKTVLGADSQRRSPSTGPWPCPQDPLGAARCVVHGAEFWSQYRINVTEVNPLGASTRLLDVSLQSILRPDPPQGLRVESVPGYPRRLRASWTYPASWPCQPHFLLKFRLQYRPAQHPAWSTVEPAGLEEVITDAVAGLPHAVRVSARDFLDAGTWSTWSPEAWGTPSTPGPPPGPPRVSPDPRAELDSTVLLTRSLLADTRQLAAQLRDKFPADGDHNLDSLPTLAMSAGALGALQLPGVLTRLRADLLSYLRHVQWLRRAGGSSLKTLEPELGTLQARLDRLLRRLQLLMSRLALPQPPPDPPAPPLAPPSSAWGGIRAAHAILGGLHLTLDWAVRGLLLLKTRL
